Source: the supplement of paper PMC9112550, “Optimization of the antimicrobial peptide Bac7 by deep mutational scanning” (BMC Biology, 2022)

Tested on: Escherichia coli TOP10
Assay: shrunken log2 fold change of peptide-encoding DNA abundance (4.5 h post-induction vs induction); higher = less antimicrobial activity (less host growth inhibition)
Conditions: time post-induction: 4.5 h; library: site-saturation at positions 5, 18, 19, 20
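Note: peptides expressed intracellularly from a pBAD plasmid library in pooled LB shake-flask culture, induced with 0.3% L-arabinose, DNA abundance read by NGS, three biological replicates, DESeq2 with apeglm shrinkage.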

Row | Sequence | shrunken log2 fold change
1 | RRIRPRPPRLPRPRPRPWPEPRP | 0.0423
2 | RRIRYRPPRLPRPRPRPEVGPRP | 0.0159
3 | RRIRQRPPRLPRPRPRPDVVPRP | -0.01
4 | RRIRGRPPRLPRPRPRPRDVPRP | 0.654
5 | RRIRKRPPRLPRPRPRPVMNPRP | -0.0155
6 | RRIRFRPPRLPRPRPRPTCIPRP | -0.13
7 | RRIRQRPPRLPRPRPRPIQVPRP | -0.201
8 | RRIRQRPPRLPRPRPRPYCIPRP | -0.0416
9 | RRIRMRPPRLPRPRPRPEKCPRP | -0.0105
10 | RRIRHRPPRLPRPRPRPPTVPRP | 0.184
11 | RRIRYRPPRLPRPRPRPMFGPRP | -0.143
12 | RRIRFRPPRLPRPRPRPWCLPRP | -0.17
13 | RRIRLRPPRLPRPRPRPDWCPRP | 0.0707
14 | RRIRIRPPRLPRPRPRPPCEPRP | 0.00219
15 | RRIRQRPPRLPRPRPRPHSRPRP | -0.17
16 | RRIRTRPPRLPRPRPRPKPKPRP | 0.349
17 | RRIRSRPPRLPRPRPRPDDTPRP | -0.144
18 | RRIRARPPRLPRPRPRPLAHPRP | 0.296
19 | RRIRERPPRLPRPRPRPKHAPRP | -0.0907
20 | RRIRRRPPRLPRPRPRPDLAPRP | 0.197
21 | RRIRPRPPRLPRPRPRPIRQPRP | -0.0697
22 | RRIRQRPPRLPRPRPRPNRHPRP | 0.115
23 | RRIRPRPPRLPRPRPRPHIVPRP | -0.481
24 | RRIRMRPPRLPRPRPRPACEPRP | 0.903
25 | RRIRWRPPRLPRPRPRPACSPRP | 0.528

Row | Sequence | shrunken log2 fold change
26 | RRIRSRPPRLPRPRPRPVTLPRP | -0.167
27 | RRIRERPPRLPRPRPRPNRMPRP | -1.36
28 | RRIRNRPPRLPRPRPRPTKRPRP | -0.301
29 | RRIRERPPRLPRPRPRPYWWPRP | -0.142
30 | RRIRWRPPRLPRPRPRPQLHPRP | 0.123
31 | RRIRERPPRLPRPRPRPIICPRP | -0.0147
32 | RRIRQRPPRLPRPRPRPIVFPRP | 0.161
33 | RRIRQRPPRLPRPRPRPANCPRP | 0.0322
34 | RRIRARPPRLPRPRPRPLHSPRP | 0.0941
35 | RRIRHRPPRLPRPRPRPWVIPRP | 0.00302
36 | RRIRARPPRLPRPRPRPGWPPRP | 0.789
37 | RRIRHRPPRLPRPRPRPYPQPRP | -0.546
38 | RRIRQRPPRLPRPRPRPHSYPRP | 0.0443
39 | RRIRPRPPRLPRPRPRPNTRPRP | -0.112
40 | RRIRWRPPRLPRPRPRPTHQPRP | -0.0304
41 | RRIRIRPPRLPRPRPRPYSPPRP | -0.0324
42 | RRIRSRPPRLPRPRPRPFVNPRP | -0.99
43 | RRIRVRPPRLPRPRPRPWDNPRP | 0.0145
44 | RRIRQRPPRLPRPRPRPCSGPRP | -0.0532
45 | RRIRKRPPRLPRPRPRPPITPRP | 0.0882
46 | RRIRQRPPRLPRPRPRPFFFPRP | 0.0337
47 | RRIRIRPPRLPRPRPRPIPNPRP | -0.0731
48 | RRIRERPPRLPRPRPRPRCFPRP | -0.128
49 | RRIRRRPPRLPRPRPRPVDGPRP | 0.576
50 | RRIRARPPRLPRPRPRPLHCPRP | 0.617

Row | Sequence | shrunken log2 fold change
51 | RRIRFRPPRLPRPRPRPWDVPRP | -0.0811
52 | RRIRKRPPRLPRPRPRPNLQPRP | 0.279
53 | RRIRWRPPRLPRPRPRPKEEPRP | 1.07
54 | RRIRDRPPRLPRPRPRPTGHPRP | 0.502
55 | RRIRKRPPRLPRPRPRPYQDPRP | 0.0178
56 | RRIRGRPPRLPRPRPRPNYGPRP | 0.07
57 | RRIRNRPPRLPRPRPRPCCPPRP | -0.0502
58 | RRIRSRPPRLPRPRPRPDHQPRP | -0.263
59 | RRIRKRPPRLPRPRPRPKSGPRP | 0.0187
60 | RRIRGRPPRLPRPRPRPRSQPRP | 1.13
61 | RRIRQRPPRLPRPRPRPMLKPRP | -0.106
62 | RRIRARPPRLPRPRPRPEEIPRP | 0.289
63 | RRIRIRPPRLPRPRPRPMHIPRP | -0.417
64 | RRIRFRPPRLPRPRPRPFWSPRP | -0.0458
65 | RRIRIRPPRLPRPRPRPEYPPRP | -1.05
66 | RRIRPRPPRLPRPRPRPEGEPRP | 0.302
67 | RRIRGRPPRLPRPRPRPYGMPRP | 0.036
68 | RRIRKRPPRLPRPRPRPASNPRP | 0.147
69 | RRIRERPPRLPRPRPRPMLYPRP | -0.222
70 | RRIRRRPPRLPRPRPRPLAYPRP | -0.00715
71 | RRIRTRPPRLPRPRPRPMQNPRP | -0.0815
72 | RRIRDRPPRLPRPRPRPFFMPRP | 0.033
73 | RRIRNRPPRLPRPRPRPVAYPRP | 0.0201
74 | RRIRRRPPRLPRPRPRPKTCPRP | 0.265
75 | RRIRFRPPRLPRPRPRPCWFPRP | -0.509

Row | Sequence | shrunken log2 fold change
76 | RRIRPRPPRLPRPRPRPMLDPRP | 0.071
77 | RRIRLRPPRLPRPRPRPNRYPRP | 0.0611
78 | RRIRYRPPRLPRPRPRPILDPRP | -0.253
79 | RRIRERPPRLPRPRPRPSWIPRP | -0.0746
80 | RRIRPRPPRLPRPRPRPYQAPRP | -0.0753
81 | RRIRGRPPRLPRPRPRPHQTPRP | 0.242
82 | RRIRPRPPRLPRPRPRPQESPRP | -0.0337
83 | RRIRGRPPRLPRPRPRPNLLPRP | 0.485
84 | RRIRARPPRLPRPRPRPILNPRP | -0.273
85 | RRIRCRPPRLPRPRPRPGKGPRP | -0.025
86 | RRIRRRPPRLPRPRPRPKKWPRP | 0.114
87 | RRIRCRPPRLPRPRPRPFANPRP | -0.29
88 | RRIRLRPPRLPRPRPRPMANPRP | -0.0744
89 | RRIRSRPPRLPRPRPRPNQPPRP | 0.0618
90 | RRIRTRPPRLPRPRPRPIHYPRP | -0.356
91 | RRIRNRPPRLPRPRPRPMSSPRP | -0.123
92 | RRIRMRPPRLPRPRPRPPDLPRP | 0.129
93 | RRIRQRPPRLPRPRPRPNPEPRP | 0.0266
94 | RRIRCRPPRLPRPRPRPIDDPRP | -0.0196
95 | RRIRPRPPRLPRPRPRPHYSPRP | -0.167
96 | RRIRGRPPRLPRPRPRPFCTPRP | 0.157
97 | RRIRGRPPRLPRPRPRPEMWPRP | 1.76
98 | RRIRVRPPRLPRPRPRPKQEPRP | 0.239
99 | RRIRERPPRLPRPRPRPMQYPRP | -0.271
100 | RRIRMRPPRLPRPRPRPEGNPRP | 0.182

Row | Sequence | shrunken log2 fold change
101 | RRIRKRPPRLPRPRPRPCFNPRP | -0.0824
102 | RRIRYRPPRLPRPRPRPEKTPRP | 0.0635
103 | RRIRWRPPRLPRPRPRPWGIPRP | 0.0114
104 | RRIRCRPPRLPRPRPRPIHCPRP | -0.0192
105 | RRIRSRPPRLPRPRPRPEWTPRP | 0.329
106 | RRIRNRPPRLPRPRPRPTCLPRP | -0.0993
107 | RRIRQRPPRLPRPRPRPKQDPRP | 0.0446
108 | RRIRARPPRLPRPRPRPKHDPRP | 0.263
109 | RRIRYRPPRLPRPRPRPRVPPRP | -0.0432
110 | RRIRNRPPRLPRPRPRPVIQPRP | 0.0549
111 | RRIRQRPPRLPRPRPRPPWHPRP | 0.187
112 | RRIRDRPPRLPRPRPRPKGMPRP | -0.00453
113 | RRIRHRPPRLPRPRPRPYMVPRP | -0.0357
114 | RRIRSRPPRLPRPRPRPIKEPRP | -0.0466
115 | RRIRFRPPRLPRPRPRPWYMPRP | -0.991
116 | RRIRPRPPRLPRPRPRPTRQPRP | 0.221
117 | RRIRERPPRLPRPRPRPECEPRP | 0.318
118 | RRIRCRPPRLPRPRPRPGARPRP | 0.394
119 | RRIRNRPPRLPRPRPRPRRWPRP | 0.701
120 | RRIRTRPPRLPRPRPRPNVKPRP | -0.137
121 | RRIRFRPPRLPRPRPRPLALPRP | -0.0762
122 | RRIRWRPPRLPRPRPRPQWSPRP | -0.0983
123 | RRIRFRPPRLPRPRPRPFWLPRP | 0.0058
124 | RRIRSRPPRLPRPRPRPNNRPRP | -0.475
125 | RRIRLRPPRLPRPRPRPSMKPRP | -0.252
